# Test results taken from article PMC7105484, “Crystal structures of REF6 and its complex with DNA reveal diverse recognition mechanisms” (Cell Discovery, 2020).
# T1: REF6 D1342A (Arabidopsis thaliana, UniProt Q9STM3 1223-1360, D1342A)
# T1 sequence: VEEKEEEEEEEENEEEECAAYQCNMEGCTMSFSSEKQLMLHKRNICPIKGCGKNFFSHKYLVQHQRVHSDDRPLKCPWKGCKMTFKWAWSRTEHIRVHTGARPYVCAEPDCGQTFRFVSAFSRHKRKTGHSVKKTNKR
# T2: REF6 F1339A (Arabidopsis thaliana, UniProt Q9STM3 1223-1360, F1339A)
# T2 sequence: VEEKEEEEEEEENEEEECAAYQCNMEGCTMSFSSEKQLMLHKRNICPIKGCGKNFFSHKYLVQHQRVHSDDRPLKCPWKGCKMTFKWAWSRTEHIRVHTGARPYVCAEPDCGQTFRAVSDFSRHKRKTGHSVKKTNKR
# T3: REF6 E1315A (Arabidopsis thaliana, UniProt Q9STM3 1223-1360, E1315A)
# T3 sequence: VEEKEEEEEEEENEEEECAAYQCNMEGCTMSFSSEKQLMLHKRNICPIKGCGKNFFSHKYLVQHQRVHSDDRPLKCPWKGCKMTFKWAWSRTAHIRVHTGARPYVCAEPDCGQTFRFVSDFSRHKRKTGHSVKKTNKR
# T4: REF6 W1309A (Arabidopsis thaliana, UniProt Q9STM3 1223-1360, W1309A)
# T4 sequence: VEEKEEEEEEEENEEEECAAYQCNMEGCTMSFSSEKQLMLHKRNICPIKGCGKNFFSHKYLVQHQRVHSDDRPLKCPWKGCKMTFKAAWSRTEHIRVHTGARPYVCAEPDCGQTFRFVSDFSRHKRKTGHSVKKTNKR
# T5: REF6 Y1282A (Arabidopsis thaliana, UniProt Q9STM3 1223-1360, Y1282A)
# T5 sequence: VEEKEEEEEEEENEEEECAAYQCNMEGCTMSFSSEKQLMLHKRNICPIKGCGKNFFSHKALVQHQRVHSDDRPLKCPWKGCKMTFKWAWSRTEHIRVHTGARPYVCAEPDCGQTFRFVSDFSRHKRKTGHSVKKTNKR
# T6: REF6 K1281A (Arabidopsis thaliana, UniProt Q9STM3 1223-1360, K1281A)
# T6 sequence: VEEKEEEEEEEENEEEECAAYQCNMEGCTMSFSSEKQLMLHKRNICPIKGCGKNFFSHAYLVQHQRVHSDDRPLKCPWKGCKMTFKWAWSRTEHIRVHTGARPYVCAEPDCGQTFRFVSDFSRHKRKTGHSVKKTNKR
# T7: REF6 ZnF1-4 WT (Arabidopsis thaliana, UniProt Q9STM3 1223-1360)
# T7 sequence: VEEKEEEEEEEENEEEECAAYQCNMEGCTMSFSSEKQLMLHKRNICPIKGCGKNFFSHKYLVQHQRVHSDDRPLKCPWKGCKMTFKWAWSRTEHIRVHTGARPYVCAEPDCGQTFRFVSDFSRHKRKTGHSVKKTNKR
# Key:
# Assay in all cases: MST; MST: 20 mM HEPES pH 7.3, 150 mM NaCl, 0.2 mM TCEP, 0.5% CA-630, 25 C; EMSA: 30 uM protein, 10 uM dsDNA, 20 mM Tris pH 8.0, 100 mM NaCl, 2.5 mM MgCl2, 0.1% CA-630, 10% glycerol, 1 uM ZnSO4, 1 mM DTT, 4 C
# REF6 D1342A = biological target: T1, REF6 D1342A; details: protein: recombinant; tags: His6-MBP or GST, TEV-cleavable; label: FAM in MST; none in crystal and EMSA; 5' overhang 1 nt on both strands, 15 bp
# REF6 F1339A = biological target: T2, REF6 F1339A; details: protein: recombinant; tags: His6-MBP or GST, TEV-cleavable; label: FAM in MST; none in crystal and EMSA; 5' overhang 1 nt on both strands, 15 bp
# REF6 E1315A = biological target: T3, REF6 E1315A; details: protein: recombinant; tags: His6-MBP or GST, TEV-cleavable; label: FAM in MST; none in crystal and EMSA; 5' overhang 1 nt on both strands, 15 bp
# REF6 W1309A = biological target: T4, REF6 W1309A; details: protein: recombinant; tags: His6-MBP or GST, TEV-cleavable; label: FAM in MST; none in crystal and EMSA; 5' overhang 1 nt on both strands, 15 bp
# REF6 Y1282A = biological target: T5, REF6 Y1282A; details: protein: recombinant; tags: His6-MBP or GST, TEV-cleavable; label: FAM in MST; none in crystal and EMSA; 5' overhang 1 nt on both strands, 15 bp
# REF6 K1281A = biological target: T6, REF6 K1281A; details: protein: recombinant; tags: His6-MBP or GST, TEV-cleavable; label: FAM in MST; none in crystal and EMSA; 5' overhang 1 nt on both strands, 15 bp
# REF6 ZnF1-4 WT = biological target: T7, REF6 ZnF1-4 WT; details: protein: recombinant; tags: His6-MBP or GST tag, TEV-cleavable (cleaved when necessary); label: FAM in MST; none in crystal and EMSA; 5' overhang 1 nt on both strands, 15 bp
binder,measurement,setting,value
NAC004 m5 (dsDNA) DNA 1: CTTTCTCTGTTTTGTC DNA 2: GGACAAAACAGAGAAA,Kd,REF6 D1342A,1300 nM
same,Kd,REF6 F1339A,500 nM
same,Kd,REF6 E1315A,3700 nM
same,Kd,REF6 W1309A,58500 nM
same,Kd,REF6 Y1282A,1100 nM
same,Kd,REF6 K1281A,1300 nM
same,Kd,REF6 ZnF1-4 WT,400 nM
